What was measured:
[1] = target: Biotinylated JW8-IgE (human); assay: ELISA; FcεRIα immobilised at 30 nM; biotinylated JW8-IgE titrated (60–0.001 nM) or 0.78 nM pre-incubated 30 min with anti-IgE antibodies (0.0078–600 nM); streptavidin-HRP
[2] = target: Human monoclonal Sus11-IgE (human); assay: SPR; Biacore X100, CM5 chip, HBS-EP+, 10 μl/min; anti-IgE Le27 immobilised (3000 RU), 30 nM Sus11-IgE captured (~100 RU); 1.56–25 nM antibodies/fragments injected 120 s, dissociation 240 s; 1:1 langmuir fit

| fold higher potency than omalizumab in inhibiting IgE binding to FcεRIα [1] [fold] | Kd [2] [nM] | koff [2] [s⁻¹] | kon [2] [M⁻¹ s⁻¹] | Binder |
| --- | --- | --- | --- | --- |
| 20 | 0.0178 | 3.3e-05 | 1.8e+06 | Ligelizumab IgG (antibody, V domains shown) VH: QVQLVQSGAEVMKPGSSVKVSCKASGYTFSWYWLEWVRQAPGHGLEWMGEIDPGTFTTNYNEKFKARVTFTADTSTSTAYMELSSLRSEDTAVYYCARFSHFSGSNYDYFDYWGQGTLVTVSS VL: EIVMTQSPATLSVSPGERATLSCRASQSIGTNIHWYQQKPGQAPRLLIYYASESISGIPARFSGSGSGTEFTLTISSLQSEDFAVYYCQQSWSWPTTFGGGTKVEIK |
| – | 0.0121 | 5.1e-05 | 4.2e+06 | Ligelizumab F(ab′)2 (protein) VH: QVQLVQSGAEVMKPGSSVKVSCKASGYTFSWYWLEWVRQAPGHGLEWMGEIDPGTFTTNYNEKFKARVTFTADTSTSTAYMELSSLRSEDTAVYYCARFSHFSGSNYDYFDYWGQGTLVTVSS VL: EIVMTQSPATLSVSPGERATLSCRASQSIGTNIHWYQQKPGQAPRLLIYYASESISGIPARFSGSGSGTEFTLTISSLQSEDFAVYYCQQSWSWPTTFGGGTKVEIK |
| – | 0.035 | 0.00032 | 9.2e+06 | Ligelizumab Fab (Fab, V domains shown) VH: QVQLVQSGAEVMKPGSSVKVSCKASGYTFSWYWLEWVRQAPGHGLEWMGEIDPGTFTTNYNEKFKARVTFTADTSTSTAYMELSSLRSEDTAVYYCARFSHFSGSNYDYFDYWGQGTLVTVSS VL: EIVMTQSPATLSVSPGERATLSCRASQSIGTNIHWYQQKPGQAPRLLIYYASESISGIPARFSGSGSGTEFTLTISSLQSEDFAVYYCQQSWSWPTTFGGGTKVEIK |
